{"source": "paper PMC10786891", "about": "“Massively parallel profiling of RNA-targeting CRISPR-Cas13d”", "binders": {"B1": {"name": "target 2 MT 5'PFS GAA 3'PFS CAG (mixed)", "RNA 1": "CACCCGUGCAAAAUUGCAGGGGUCUAAAACCUUCUCCAAAUUGUUUCAUCCU", "RNA 2": "GGGAAUGGAUCCACAUCUACGAAUUCGAAAGGAUGAAACAAUUUGGAGAAGCAGAGAUCGGAAGAGCACACGU"}, "B2": {"name": "target 2 MT 5'PFS CUU 3'PFS CAU (mixed)", "RNA 1": "B1 RNA 1", "RNA 2": "B1 RNA 2 with G27C, A28U, A29U, G54U"}, "B3": {"name": "target 2 MT 5'PFS ACU 3'PFS UUU (mixed)", "RNA 1": "B1 RNA 1", "RNA 2": "B1 RNA 2 with G27A, A28C, A29U, C52U, A53U, G54U"}, "B4": {"name": "target 2 MT 5'PFS UGA 3'PFS AAU (mixed)", "RNA 1": "B1 RNA 1", "RNA 2": "B1 RNA 2 with G27U, A28G, C52A, G54U"}, "B5": {"name": "target 2 MT 5'PFS ACU 3'PFS UUG (mixed)", "RNA 1": "B1 RNA 1", "RNA 2": "B1 RNA 2 with G27A, A28C, A29U, C52U, A53U"}, "B6": {"name": "target 2 MT 5'PFS CAU 3'PFS AUA (mixed)", "RNA 1": "B1 RNA 1", "RNA 2": "B1 RNA 2 with G27C, A29U, C52A, A53U, G54A"}, "B7": {"name": "target 2 MT 5'PFS UGC 3'PFS AGG (mixed)", "RNA 1": "B1 RNA 1", "RNA 2": "B1 RNA 2 with G27U, A28G, A29C, C52A, A53G"}, "B8": {"name": "target 2 MT 5'PFS UGA 3'PFS AAG (mixed)", "RNA 1": "B1 RNA 1", "RNA 2": "B1 RNA 2 with G27U, A28G, C52A"}, "B9": {"name": "target 2 MT 5'PFS AGC 3'PFS UCU (mixed)", "RNA 1": "B1 RNA 1", "RNA 2": "B1 RNA 2 with G27A, A28G, A29C, C52U, A53C, G54U"}, "B10": {"name": "target 2 MT 5'PFS CUC 3'PFS UGC (mixed)", "RNA 1": "B1 RNA 1", "RNA 2": "B1 RNA 2 with G27C, A28U, A29C, C52U, A53G, G54C"}, "B11": {"name": "target 2 MT 5'PFS AGC 3'PFS UCG (mixed)", "RNA 1": "B1 RNA 1", "RNA 2": "B1 RNA 2 with G27A, A28G, A29C, C52U, A53C"}, "B12": {"name": "target 2 MT 5'PFS AUA 3'PFS UUC (mixed)", "RNA 1": "B1 RNA 1", "RNA 2": "B1 RNA 2 with G27A, A28U, C52U, A53U, G54C"}, "B13": {"name": "target 2 MT 5'PFS UGC 3'PFS AGC (mixed)", "RNA 1": "B1 RNA 1", "RNA 2": "B1 RNA 2 with G27U, A28G, A29C, C52A, A53G, G54C"}, "B14": {"name": "target 2 MT 5'PFS CAU 3'PFS AUG (mixed)", "RNA 1": "B1 RNA 1", "RNA 2": "B1 RNA 2 with G27C, A29U, C52A, A53U"}, "B15": {"name": "target 2 MT 5'PFS ACU 3'PFS UUC (mixed)", "RNA 1": "B1 RNA 1", "RNA 2": "B1 RNA 2 with G27A, A28C, A29U, C52U, A53U, G54C"}, "B16": {"name": "target 2 MT 5'PFS UUC 3'PFS CAA (mixed)", "RNA 1": "B1 RNA 1", "RNA 2": "B1 RNA 2 with G27U, A28U, A29C, G54A"}, "B17": {"name": "target 2 MT 5'PFS AGC 3'PFS UCA (mixed)", "RNA 1": "B1 RNA 1", "RNA 2": "B1 RNA 2 with G27A, A28G, A29C, C52U, A53C, G54A"}, "B18": {"name": "target 2 MT 5'PFS CAU 3'PFS AUC (mixed)", "RNA 1": "B1 RNA 1", "RNA 2": "B1 RNA 2 with G27C, A29U, C52A, A53U, G54C"}, "B19": {"name": "target 2 MT 5'PFS CAG 3'PFS ACG (mixed)", "RNA 1": "B1 RNA 1", "RNA 2": "B1 RNA 2 with G27C, A29G, C52A, A53C"}, "B20": {"name": "target 2 MT 5'PFS CAG 3'PFS UUC (mixed)", "RNA 1": "B1 RNA 1", "RNA 2": "B1 RNA 2 with G27C, A29G, C52U, A53U, G54C"}, "B21": {"name": "target 2 MT 5'PFS UGC 3'PFS AGA (mixed)", "RNA 1": "B1 RNA 1", "RNA 2": "B1 RNA 2 with G27U, A28G, A29C, C52A, A53G, G54A"}, "B22": {"name": "target 2 MT 5'PFS CUU 3'PFS CAC (mixed)", "RNA 1": "B1 RNA 1", "RNA 2": "B1 RNA 2 with G27C, A28U, A29U, G54C"}, "B23": {"name": "target 2 MT 5'PFS UCA 3'PFS UAU (mixed)", "RNA 1": "B1 RNA 1", "RNA 2": "B1 RNA 2 with G27U, A28C, C52U, G54U"}, "B24": {"name": "target 2 MT 5'PFS GCG 3'PFS CGA (mixed)", "RNA 1": "B1 RNA 1", "RNA 2": "B1 RNA 2 with A28C, A29G, A53G, G54A"}, "B25": {"name": "target 2 MT 5'PFS UUC 3'PFS CAC (mixed)", "RNA 1": "B1 RNA 1", "RNA 2": "B1 RNA 2 with G27U, A28U, A29C, G54C"}, "B26": {"name": "target 2 MT 5'PFS AUA 3'PFS UUA (mixed)", "RNA 1": "B1 RNA 1", "RNA 2": "B1 RNA 2 with G27A, A28U, C52U, A53U, G54A"}, "B27": {"name": "target 2 MT 5'PFS ACU 3'PFS UUA (mixed)", "RNA 1": "B1 RNA 1", "RNA 2": "B1 RNA 2 with G27A, A28C, A29U, C52U, A53U, G54A"}, "B28": {"name": "target 2 MT 5'PFS CUC 3'PFS UGU (mixed)", "RNA 1": "B1 RNA 1", "RNA 2": "B1 RNA 2 with G27C, A28U, A29C, C52U, A53G, G54U"}, "B29": {"name": "target 2 MT 5'PFS UUC 3'PFS CAG (mixed)", "RNA 1": "B1 RNA 1", "RNA 2": "B1 RNA 2 with G27U, A28U, A29C"}, "B30": {"name": "target 2 MT 5'PFS CUU 3'PFS CAG (mixed)", "RNA 1": "B1 RNA 1", "RNA 2": "B1 RNA 2 with G27C, A28U, A29U"}, "B31": {"name": "target 2 MT 5'PFS CUC 3'PFS UGA (mixed)", "RNA 1": "B1 RNA 1", "RNA 2": "B1 RNA 2 with G27C, A28U, A29C, C52U, A53G, G54A"}, "B32": {"name": "target 2 MT 5'PFS CUU 3'PFS CAA (mixed)", "RNA 1": "B1 RNA 1", "RNA 2": "B1 RNA 2 with G27C, A28U, A29U, G54A"}, "B33": {"name": "target 2 MT 5'PFS AGC 3'PFS UCC (mixed)", "RNA 1": "B1 RNA 1", "RNA 2": "B1 RNA 2 with G27A, A28G, A29C, C52U, A53C, G54C"}, "B34": {"name": "target 1 insG 3' of 10,insC 3' of 8 (mixed)", "RNA 1": "CACCCGUGCAAAAAUGCAGGGGUCUAAAACUGAGCGGAUAACCUCUCUAUGG", "RNA 2": "GGGAAUGGAUCCACAUCUACGAAUUCGUACCAUAGAGAGGUUGAUCCCGCUCACCGAGAUCGGAAGAGCACACGU"}, "B35": {"name": "target 1 A14U,A16C (mixed)", "RNA 1": "B34 RNA 1", "RNA 2": "GGGAAUGGAUCCACAUCUACGAAUUCGUACCAUAGCGUGGUUAUCCGCUCACCGAGAUCGGAAGAGCACACGU"}, "B36": {"name": "target 1 G17C,A18G (mixed)", "RNA 1": "B34 RNA 1", "RNA 2": "B35 RNA 2 with A34G, G35C, C36A, U38A"}, "B37": {"name": "target 1 U10C,G12C (mixed)", "RNA 1": "B34 RNA 1", "RNA 2": "B35 RNA 2 with C36A, U38A, G40C, U42C"}}, "note": "Positions count from the first letter of the chain named. Names and notes keep the numbering of the source.", "data": [{"molecular_target": "T1, EsCas13d, nuclease-dead (Eubacterium siraeum, UniProt B0MS50, R295A;H300A;R849A;H854A)", "T1 sequence": "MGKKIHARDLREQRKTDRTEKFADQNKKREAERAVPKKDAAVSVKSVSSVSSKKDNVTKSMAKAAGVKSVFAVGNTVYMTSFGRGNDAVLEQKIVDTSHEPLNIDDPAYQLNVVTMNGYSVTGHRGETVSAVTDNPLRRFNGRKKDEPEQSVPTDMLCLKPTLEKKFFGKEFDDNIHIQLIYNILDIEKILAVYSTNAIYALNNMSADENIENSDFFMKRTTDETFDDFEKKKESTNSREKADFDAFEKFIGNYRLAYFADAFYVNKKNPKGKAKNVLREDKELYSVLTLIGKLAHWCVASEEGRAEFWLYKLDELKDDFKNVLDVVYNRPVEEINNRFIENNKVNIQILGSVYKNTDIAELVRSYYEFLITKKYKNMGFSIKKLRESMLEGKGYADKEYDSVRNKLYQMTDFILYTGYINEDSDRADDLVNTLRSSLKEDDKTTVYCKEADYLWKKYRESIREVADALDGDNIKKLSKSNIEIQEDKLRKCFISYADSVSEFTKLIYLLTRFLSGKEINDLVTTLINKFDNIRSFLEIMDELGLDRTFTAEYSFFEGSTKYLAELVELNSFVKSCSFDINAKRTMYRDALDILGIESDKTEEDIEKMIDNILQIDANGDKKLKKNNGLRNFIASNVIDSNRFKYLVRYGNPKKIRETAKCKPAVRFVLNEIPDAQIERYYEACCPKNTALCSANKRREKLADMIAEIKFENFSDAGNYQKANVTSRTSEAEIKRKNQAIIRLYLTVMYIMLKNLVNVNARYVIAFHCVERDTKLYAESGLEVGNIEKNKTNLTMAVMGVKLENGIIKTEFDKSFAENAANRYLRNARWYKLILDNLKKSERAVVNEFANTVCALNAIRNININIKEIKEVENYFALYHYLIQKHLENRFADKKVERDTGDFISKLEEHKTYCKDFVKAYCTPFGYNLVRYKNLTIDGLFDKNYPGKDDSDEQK", "test": "crRNA (strand 1, pre-loaded); Mg2+; 40 mM Tris-HCl pH 7.5, 150 mM NaCl, 6 mM MgCl2, 1 mM DTT, 0.1% Tween-20, 0.2 mg/ml BSA; 25 C; 10 min per concentration, then washed", "conditions": "tags: His6-TwinStrep-SUMO cleaved; N-terminal SNAP kept (SNAP-Surface 488); label: 3' end held by stalled T7 RNA polymerase", "units": {"Kd": "nM"}, "values": [{"binder": "B1", "Kd": "6.6 ± 0.6"}, {"binder": "B2", "Kd": "4.1 ± 0.6"}, {"binder": "B3", "Kd": "6.4 ± 0.8"}, {"binder": "B4", "Kd": "6.2 ± 0.8"}, {"binder": "B5", "Kd": "7 ± 1"}, {"binder": "B6", "Kd": "3.31 ± 0.27"}, {"binder": "B7", "Kd": "~60"}, {"binder": "B8", "Kd": "7.4 ± 0.9"}, {"binder": "B9", "Kd": "16.1 ± 2.8"}, {"binder": "B10", "Kd": "1.98 ± 0.26"}, {"binder": "B11", "Kd": "14.3 ± 3.2"}, {"binder": "B12", "Kd": "13.4 ± 2.4"}, {"binder": "B13", "Kd": "19.7 ± 1.9"}, {"binder": "B14", "Kd": "4 ± 0.7"}, {"binder": "B15", "Kd": "7.1 ± 2"}, {"binder": "B16", "Kd": "30 ± 6"}, {"binder": "B17", "Kd": "27 ± 10"}, {"binder": "B18", "Kd": "3.3 ± 0.5"}, {"binder": "B19", "Kd": "5.8 ± 2.8"}, {"binder": "B20", "Kd": "19 ± 8"}, {"binder": "B21", "Kd": "26 ± 9"}, {"binder": "B22", "Kd": "3.41 ± 0.28"}, {"binder": "B23", "Kd": "5.1 ± 0.7"}, {"binder": "B24", "Kd": "30 ± 12"}, {"binder": "B25", "Kd": "13 ± 4"}, {"binder": "B26", "Kd": "10.7 ± 1.7"}, {"binder": "B27", "Kd": "9.4 ± 2.2"}, {"binder": "B28", "Kd": "2.23 ± 0.19"}, {"binder": "B29", "Kd": "6.5 ± 1.4"}, {"binder": "B30", "Kd": "3.75 ± 0.3"}, {"binder": "B31", "Kd": "1.66 ± 0.33"}, {"binder": "B32", "Kd": "2.9 ± 0.4"}, {"binder": "B33", "Kd": "23 ± 4"}, {"binder": "B34", "Kd": "27.8 ± 1.9"}, {"binder": "B35", "Kd": "100 ± 40"}, {"binder": "B36", "Kd": "~90"}, {"binder": "B37", "Kd": "71 ± 27"}]}]}
